In article PMC6787100:
Values joined by “and” are separate entries in the source; they are usually repeats but may differ in a detail not shown here. Equal values may be shown once.

How the values were obtained:
[1] = molecular target: lantibiotic subtilomycin (Bacillus subtilis BSn5); assay: tricine-SDS-PAGE; purified subtilomycin on 16% tricine-SDS-PAGE; bands of around 9, 12 and 15 kDa; oligomers of subtilomycin
[2] = molecular target: Hag (ex), recombinant Hag with the flg22 region replaced by flg22 (Ps) (Bacillus subtilis BSn5 | Pseudomonas syringae); assay: MST; protein labelled with Cy5-NHS ester at fixed concentration, serial 2x dilutions of unlabelled subtilomycin (1 mM set as highest; 500 μM highest final in the legend); PBS pH 8.0; MST power 20%, LED power 60%; Monolith NT.115; constants called ambiguous, based on total subtilomycin concentration

For lantibiotic subtilomycin (peptide), the stoichiometry N [1] was 3 and 4 and 5 and the Kd [2] was 80.6 µM.
